In series [1] the test system is HeLa Kyoto. Kind of series: melting temperature (median over replicates), in situ; higher = more thermally stable.
Series [2] relates to HeLa Kyoto. Kind of series: thermal stability score vs G1/S (z-score of summed log2 fold changes over temperatures); higher = more thermally stable than in G1/S.
The test system of series [3] is HeLa Kyoto. Kind of series: solubility in G1/S (NP-40 vs SDS abundance) (log2 ratio); higher = more soluble. The settings on record: cell cycle stage: G1/S.
For series [4], the system named is HeLa Kyoto. As to the kind of experiment: solubility change mitosis vs G1/S (difference of NP-40 vs SDS log2 ratios) (log2 ratio difference); higher = more soluble in mitosis.
Where [5] appears, read: cell cycle stage: early G1 (4.5 h after nocodazole release).
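Throughout, for melting temperature (median over replicates), in situ: HeLa Kyoto cells synchronized by double thymidine or nocodazole block, proteins quantified by TMT10plex mass spectrometry, three independent biological replicates.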
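Throughout, for solubility change mitosis vs G1/S (difference of NP-40 vs SDS log2 ratios): synchronized HeLa Kyoto cells (double thymidine block for G1/S, nocodazole release for mitosis), protein amounts in NP-40 versus SDS lysates quantified by mass spectrometry, three biological replicates.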
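Throughout, for solubility in G1/S (NP-40 vs SDS abundance): HeLa Kyoto cells arrested at G1/S by double thymidine block, proteins quantified by TMT10plex mass spectrometry in mild NP-40 versus SDS extracts, three biological replicates.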
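Throughout, for thermal stability score vs G1/S (z-score of summed log2 fold changes over temperatures): synchronized HeLa Kyoto cells, proteins quantified by TMT10plex mass spectrometry, three biological replicates, mitosis taken 0.5 h after nocodazole release, G1/S directly after double thymidine block.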

For the sequence “MAAALFVLLGFALLGTHGASGAAGFVQAPLSQQRWVGGSVELHCEAVGSPVPEIQWWFEGQGPNDTCSQLWDGARLDRVHIHATYHQHAASTISIDTLVEEDTGTYECRASNDPDRNHLTRAPRVKWVRAQAVVLVLEPGTVFTTVEDLGSKILLTCSLNDSATEVTGHRWLKGGVVLKEDALPGQKTEFKVDSDDQWGEYSCVFLPEPMGTANIQLHGPPRVKAVKSSEHINEGETAMLVCKSESVPPVTDWAWYKITDSEDKALMNGSESRFFVSSSQGRSELHIENLNMEADPGQYRCNGTSSKGSDQAIITLRVRSHLAALWPFLGIVAEVLVLVTIIFIYEKRRKPEDVLDDDDAGSAPLKSSGQHQNDKGKNVRQRNSS [BSG]”, the melting temperature was 59.1 °C in the series on HeLa Kyoto [1] (cell cycle stage: G1/S) and 59.8 °C in the series on HeLa Kyoto [1] (cell cycle stage: mitosis). Besides, the thermal stability score is -0.849 in the series on HeLa Kyoto [2] (setting [5]) and -2.75 with HeLa Kyoto [2] (cell cycle stage: mitosis). The “solubility in G1/S (log2)” value in the series with HeLa Kyoto [3] is 0.205. Further, the “solubility change mitosis (log2)” value with HeLa Kyoto [4] was -0.00749.

Turning to “MAAALLARASGPARRALCPRAWRQLHTIYQSVELPETHQMLLQTCRDFAEKELFPIAAQVDKEHLFPAAQVKKMGGLGLLAMDVPEELGGAGLDYLAYAIAMEEISRGCASTGVIMSVNNSLYLGPILKFGSKEQKQAWVTPFTSGDKIGCFALSEPGNGSDAGAASTTARAEGDSWVLNGTKAWITNAWEASAAVVFASTDRALQNKGISAFLVPMPTPGLTLGKKEDKLGIRGSSTANLIFEDCRIPKDSILGEPGMGFKIAMQTLDMGRIGIASQALGIAQTALDCAVNYAENRMAFGAPLTKLQVIQFKLADMALALESARLLTWRAAMLKDNKKPFIKEAAMAKLAASEAATAISHQAIQILGGMGYVTEMPAERHYRDARITEIYEGTSEIQRLVIAGHLLRSYRS [ACADS]”, the melting temperature in the series on HeLa Kyoto [1] (cell cycle stage: G1/S) came to 55.3 °C; in the series with HeLa Kyoto [1] (cell cycle stage: mitosis) it was 53.9 °C. Further, the thermal stability score was -1.85 in the series with HeLa Kyoto [2] (setting [5]) and -3.37 with HeLa Kyoto [2] (cell cycle stage: mitosis). In the series with HeLa Kyoto [3], the “solubility in G1/S (log2)” value was 0.191. Moreover, the “solubility change mitosis (log2)” value in the series with HeLa Kyoto [4] is -0.159.

On to “MAAAVVLAAGLRAARRAVAATGVRGGQVRGAAGVTDGNEVAKAQQATPGGAAPTIFSRILDKSLPADILYEDQQCLVFRDVAPQAPVHFLVIPKKPIPRISQAEEEDQQLLGHLLLVAKQTAKAEGLGDGYRLVINDGKLGAQSVYHLHIHVLGGRQLQWPPG [HINT2]”, for which the melting temperature with HeLa Kyoto [1] (cell cycle stage: G1/S) and in the series on HeLa Kyoto [1] (cell cycle stage: mitosis) was 54.9 °C throughout. In addition, the figures for the thermal stability score in the series on HeLa Kyoto [2] (setting [5]) and with HeLa Kyoto [2] (cell cycle stage: mitosis) were -0.929 and -2.12, respectively. In addition, in the series on HeLa Kyoto [3], the “solubility in G1/S (log2)” value amounted to 0.565. Besides, in the series with HeLa Kyoto [4], the “solubility change mitosis (log2)” value is -0.0342.

Consider “MAACGRVRRMFRLSAALHLLLLFAAGAEKLPGQGVHSQGQGPGANFVSFVGQAGGGGPAGQQLPQLPQSSQLQQQQQQQQQQQQPQPPQPPFPAGGPPARRGGAGAGGGWKLAEEESCREDVTRVCPKHTWSNNLAVLECLQDVREPENEISSDCNHLLWNYKLNLTTDPKFESVAREVCKSTITEIKECADEPVGKGYMVSCLVDHRGNITEYQCHQYITKMTAIIFSDYRLICGFMDDCKNDINILKCGSIRLGEKDAHSQGEVVSCLEKGLVKEAEEREPKIQVSELCKKAILRVAELSSDDFHLDRHLYFACRDDRERFCENTQAGEGRVYKCLFNHKFEESMSEKCREALTTRQKLIAQDYKVSYSLAKSCKSDLKKYRCNVENLPRSREARLSYLLMCLESAVHRGRQVSSECQGEMLDYRRMLMEDFSLSPEIILSCRGEIEHHCSGLHRKGRTLHCLMKVVRGEKGNLGMNCQQALQTLIQETDPGADYRIDRALNEACESVIQTACKHIRSGDPMILSCLMEHLYTEKMVEDCEHRLLELQYFISRDWKLDPVLYRKCQGDASRLCHTHGWNETSEFMPQGAVFSCLYRHAYRTEEQGRRLSRECRAEVQRILHQRAMDVKLDPALQDKCLIDLGKWCSEKTETGQELECLQDHLDDLVVECRDIVGNLTELESEDIQIEALLMRACEPIIQNFCHDVADNQIDSGDLMECLIQNKHQKDMNEKCAIGVTHFQLVQMKDFRFSYKFKMACKEDVLKLCPNIKKKVDVVICLSTTVRNDTLQEAKEHRVSLKCRRQLRVEELEMTEDIRLEPDLYEACKSDIKNFCSAVQYGNAQIIECLKENKKQLSTRCHQKVFKLQETEMMDPELDYTLMRVCKQMIKRFCPEADSKTMLQCLKQNKNSELMDPKCKQMITKRQITQNTDYRLNPMLRKACKADIPKFCHGILTKAKDDSELEGQVISCLKLRYADQRLSSDCEDQIRIIIQESALDYRLDPQLQLHCSDEISSLCAEEAAAQEQTGQVEECLKVNLLKIKTELCKKEVLNMLKESKADIFVDPVLHTACALDIKHHCAAITPGRGRQMSCLMEALEDKRVRLQPECKKRLNDRIEMWSYAAKVAPADGFSDLAMQVMTSPSKNYILSVISGSICILFLIGLMCGRITKRVTRELKDR [GLG1]”, for which the melting temperature with HeLa Kyoto [1] (cell cycle stage: G1/S) came to 56.3 °C; with HeLa Kyoto [1] (cell cycle stage: mitosis) it was 56.5 °C. Further, the results for the thermal stability score with HeLa Kyoto [2] (setting [5]) and in the series on HeLa Kyoto [2] (cell cycle stage: mitosis) were -1.04 and -1.91, respectively. For the same sequence, in the series on HeLa Kyoto [3], the “solubility in G1/S (log2)” value was -0.0893. Further, the “solubility change mitosis (log2)” value with HeLa Kyoto [4] was -0.0491.

For the origin of these results see the supplement of paper PMC5998384.
